Experiments:
[1] = target: T1, ROR1 on stably transgenic ROR1-expressing cells MDA-MB-231-ROR1 (UniProt Q01973 30-937, limits assumed); test: flow cytometry on MDA-MB-231-ROR1 cells
T1 construct: whole, on cells

[2] = target: T2, ROR1 protein (ACROBiosystems, Cat# RO1-H5223) (UniProt Q01973 308-395); test: ELISA on ROR1 protein, anti-IgG secondary antibody, OD450
T2 construct: Bought protein

ROR1 antigen = target: T3, ROR1 antigen (UniProt Q01973 30-403, limits assumed); test: BLI (Octet RED96e), antibody on sensor, ROR1 antigen from 100 nM in 2-fold dilutions
T3 construct: construct not described
T3 sequence (Q01973 30-403 limits assumed): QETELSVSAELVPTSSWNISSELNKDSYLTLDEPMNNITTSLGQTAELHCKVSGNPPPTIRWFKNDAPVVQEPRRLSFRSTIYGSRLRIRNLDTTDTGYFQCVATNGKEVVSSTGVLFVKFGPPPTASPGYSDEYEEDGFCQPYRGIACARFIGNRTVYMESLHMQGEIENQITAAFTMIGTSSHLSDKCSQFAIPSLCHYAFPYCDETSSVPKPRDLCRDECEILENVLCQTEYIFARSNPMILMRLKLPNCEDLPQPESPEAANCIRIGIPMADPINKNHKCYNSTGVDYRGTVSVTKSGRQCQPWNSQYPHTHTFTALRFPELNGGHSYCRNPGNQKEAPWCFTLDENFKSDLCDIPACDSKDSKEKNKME

T2 sequence (Q01973 308-395 limits assumed): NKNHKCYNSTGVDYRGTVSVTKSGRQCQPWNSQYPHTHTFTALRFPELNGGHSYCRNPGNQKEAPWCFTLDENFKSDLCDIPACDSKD
T1 sequence (Q01973 30-937 limits assumed): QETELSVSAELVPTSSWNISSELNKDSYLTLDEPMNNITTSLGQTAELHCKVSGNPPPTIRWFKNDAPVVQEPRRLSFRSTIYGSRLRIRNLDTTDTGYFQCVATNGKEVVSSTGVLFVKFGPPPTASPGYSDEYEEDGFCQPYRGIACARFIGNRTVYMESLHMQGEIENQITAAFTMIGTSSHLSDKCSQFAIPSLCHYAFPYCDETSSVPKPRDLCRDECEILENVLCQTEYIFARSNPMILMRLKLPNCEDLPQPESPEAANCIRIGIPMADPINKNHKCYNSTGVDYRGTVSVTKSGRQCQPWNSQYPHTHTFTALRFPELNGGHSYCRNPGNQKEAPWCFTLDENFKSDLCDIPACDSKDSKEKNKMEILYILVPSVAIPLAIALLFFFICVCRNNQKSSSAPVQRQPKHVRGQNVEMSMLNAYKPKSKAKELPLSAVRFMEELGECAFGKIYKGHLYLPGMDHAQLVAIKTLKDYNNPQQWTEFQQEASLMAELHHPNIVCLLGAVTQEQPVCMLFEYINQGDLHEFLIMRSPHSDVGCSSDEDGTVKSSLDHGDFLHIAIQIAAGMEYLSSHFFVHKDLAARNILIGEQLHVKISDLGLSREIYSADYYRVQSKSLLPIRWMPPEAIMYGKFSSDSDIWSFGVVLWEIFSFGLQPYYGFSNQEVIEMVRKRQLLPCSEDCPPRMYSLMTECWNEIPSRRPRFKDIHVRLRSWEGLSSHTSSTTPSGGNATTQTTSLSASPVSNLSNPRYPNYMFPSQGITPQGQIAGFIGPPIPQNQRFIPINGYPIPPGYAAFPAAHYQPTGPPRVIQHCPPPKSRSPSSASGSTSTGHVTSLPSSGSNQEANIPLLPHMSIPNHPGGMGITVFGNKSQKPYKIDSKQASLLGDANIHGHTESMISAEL

Binder	EC50 [1] [µg/mL]	EC50 [2] [µg/mL]	Kd (ROR1 antigen) [nM]	koff (ROR1 antigen) [s⁻¹]	kon (ROR1 antigen) [M⁻¹ s⁻¹]
murine antibody 17-F12-G8-A6 (antibody, V domains shown) VH: EVTLKESGPGILQPSQTLSLTCSFSGFSLSTSGMGVAWIRQPSGKGLEWLAHIWWDDDKRYNPALKSRLTISKDTSSNQVFLKIASVDTADTATYYCARPQFITTVVAFYWYFDVWGAGTTVTVSS VL: DILLTQSPASLSVSMGETVTITCRASENIYSNLAWYQQKQGKSPQLLVYAATNLADGVPSRFSGSGSGTQYSLKINSLQSEDFGSYYCQHFWGTPWTFGGGTKLEIK	0.0988	0.00136	14.8	0.0105	708000
humanized antibody hu17-H3L1 (antibody, human IgG1, kappa, L234A L235A, V domains shown) VH: QVTLKESGPTLVKPTQTLTLTCSFSGFSLSTSGMGVAWIRQPPGKALEWLAHIWWDDDKRYNPSLKSRLTITKDTSKNQVVLTMTNMDPVDTATYYCARPQFITTVVAFYWYFDVWGQGTTVTVSS VL: DILLTQSPSSLSVSVGDRVTITCRASENIYSNLAWYQQKPGKAPKLLVYAATNLADGVPSRFSGSGSGTQYTLTISSLQPEDFATYYCQHFWGTPWTFGGGTKLEIKR	0.107	0.0014	32.4	0.0279	859000
humanized antibody hu17-H2L1 (antibody, human IgG1, kappa, L234A L235A, V domains shown) VH: EVTLKESGPTLVKPTQTLTLTCSFSGFSLSTSGMGVAWIRQPPGKALEWLAHIWWDDDKRYNPALKSRLTITKDTSKNQVVLTITNVDPVDTATYYCARPQFITTVVAFYWYFDVWGQGTTVTVSS VL: DILLTQSPSSLSVSVGDRVTITCRASENIYSNLAWYQQKPGKAPKLLVYAATNLADGVPSRFSGSGSGTQYTLTISSLQPEDFATYYCQHFWGTPWTFGGGTKLEIKR	0.114	0.00142	22.7	0.0185	814000
humanized antibody hu17-H4L1 (antibody, human IgG1, kappa, L234A L235A, V domains shown) VH: QVTLKESGPTLVKPTQTLTLTCTFSGFSLSTSGMGVAWIRQPPGKALEWLAHIWWDDDKRYGPSLKSRLTITKDTSKNQVVLTMTNMDPVDTATYYCARPQFITTVVAFYWYFDVWGQGTTVTVSS VL: DILLTQSPSSLSVSVGDRVTITCRASENIYSNLAWYQQKPGKAPKLLVYAATNLADGVPSRFSGSGSGTQYTLTISSLQPEDFATYYCQHFWGTPWTFGGGTKLEIKR	0.101	0.00116	20	0.0147	738000
